Test results: the supplement of paper PMC11246515
± gives the standard deviation of the averaged measurements.

Assay: total protein half-life in vivo (active degradation + dilution); higher = more stable protein
[1] = E. coli NCM3722 delta-clpP delta-lon delta-hslV, growth: N-lim chemostat, doubling time 6 h
[2] = E. coli NCM3722 delta-smpB, growth: N-lim chemostat, doubling time 6 h
[3] = wild type E. coli NCM3722, growth: C-lim chemostat, doubling time 6 h
[4] = wild type E. coli NCM3722, growth: C-lim chemostat, doubling time 12 h
[5] = wild type E. coli NCM3722, growth: P-lim chemostat, doubling time 12 h
[6] = E. coli NCM3722 delta-clpP, growth: N-lim chemostat, doubling time 6 h
[7] = E. coli NCM3722 delta-hslV, growth: N-lim chemostat, doubling time 6 h
[8] = E. coli NCM3722 delta-lon, growth: N-lim chemostat, doubling time 6 h
[9] = wild type E. coli NCM3722, growth: C-lim chemostat, doubling time 3 h
[10] = wild type E. coli NCM3722, growth: N-lim chemostat, doubling time 6 h
[11] = wild type E. coli NCM3722, growth: N-lim chemostat, doubling time 12 h
[12] = wild type E. coli NCM3722, growth: P-lim chemostat, doubling time 6 h

Row | Sequence | total protein half-life in vivo [1] [h] | total protein half-life in vivo [2] [h] | total protein half-life in vivo [3] [h] | total protein half-life in vivo [4] [h] | total protein half-life in vivo [5] [h] | total protein half-life in vivo [6] [h] | total protein half-life in vivo [7] [h] | total protein half-life in vivo [8] [h] | total protein half-life in vivo [9] [h] | total protein half-life in vivo [10] [h] | total protein half-life in vivo [11] [h] | total protein half-life in vivo [12] [h]
1 | METPQPDKTGMHILLKLASLVVILAGIHAAADIIVQLLLALFFAIVLNPLVTWFIRRGVQRPVAITIVVVVMLIALTALVGVLAASFNEFISMLPKFNKELTRKLFKLQEMLPFLNLHMSPERMLQRMDSEKVVTFTTALMTGLSGAMASVLLLVMTVVFMLFEVRHVPYKMRFALNNPQIHIAGLHRALKGVSHYLALKTLLSLWTGVIVWLGLELMGVQFALMWAVLAFLLNYVPNIGAVISAVPPMIQVLLFNGVYECILVGALFLVVHMVIGNILEPRMMGHRLGMSTMVVFLSLLIWGWLLGPVGMLLSVPLTSVCKIWMETTKGGSKLAILLGPGRPKSRLPG [P0AGM0] | 6.64 ± 0.097 | 5.16 | 7.02 | 11.5 ± 0.41 | 13.6 | – | – | – | – | – | – | –
2 | MSEDIFDAIIVGAGLAGSVAALVLAREGAQVLVIERGNSAGAKNVTGGRLYAHSLEHIIPGFADSAPVERLITHEKLAFMTEKSAMTMDYCNGDETSPSQRSYSVLRSKFDAWLMEQAEEAGAQLITGIRVDNLVQRDGKVVGVEADGDVIEAKTVILADGVNSILAEKLGMAKRVKPTDVAVGVKELIELPKSVIEDRFQLQGNQGAACLFAGSPTDGLMGGGFLYTNENTLSLGLVCGLHHLHDAKKSVPQMLEDFKQHPAVAPLIAGGKLVEYSAHVVPEAGINMLPELVGDGVLIAGDAAGMCMNLGFTIRGMDLAIAAGEAAAKTVLSAMKSDDFSKQKLAEYRQHLESGPLRDMRMYQKLPAFLDNPRMFSGYPELAVGVARDLFTIDGSAPELMRKKILRHGKKVGFINLIKDGMKGVTVL | – | – | – | 9.28 | – | – | – | – | – | – | – | –
3 | MTVTTFSELELDESLLEALQDKGFTRPTAIQAAAIPPALDGRDVLGSAPTGTGKTAAYLLPALQHLLDFPRKKSGPPRILILTPTRELAMQVSDHARELAKHTHLDIATITGGVAYMNHAEVFSENQDIVVATTGRLLQYIKEENFDCRAVETLILDEADRMLDMGFAQDIEHIAGETRWRKQTLLFSATLEGDAIQDFAERLLEDPVEVSANPSTRERKKIHQWYYRADDLEHKTALLVHLLKQPEATRSIVFVRKRERVHELANWLREAGINNCYLEGEMVQGKRNEAIKRLTEGRVNVLVATDVAARGIDIPDVSHVFNFDMPRSGDTYLHRIGRTARAGRKGTAISLVEAHDHLLLGKVGRYIEEPIKARVIDELRPKTRAPSEKQTGKPSKKVLAKRAEKKKAKEKEKPRVKKRHRDTKNIGKRRKPSGTGVPPQTTEE | 5.75 ± 0.085 | 4.237 ± 0.022 | 5.47 ± 0.41 | 9.33 ± 0.45 | 7.44 ± 0.14 | 5.51 ± 0.25 | 4.72 ± 0.45 | 5.13 ± 0.37 | 3.01 ± 0.26 | 4.2 ± 0.049 | 7.37 ± 0.27 | 4.18 ± 0.28
4 | MKNASTVSEDTASNQEPTLHRGLHNRHIQLIALGGAIGTGLFLGIGPAIQMAGPAVLLGYGVAGIIAFLIMRQLGEMVVEEPVSGSFAHFAYKYWGPFAGFLSGWNYWVMFVLVGMAELTAAGIYMQYWFPDVPTWIWAAAFFIIINAVNLVNVRLYGETEFWFALIKVLAIIGMIGFGLWLLFSGHGGEKASIDNLWRYGGFFATGWNGLILSLAVIMFSFGGLELIGITAAEARDPEKSIPKAVNQVVYRILLFYIGSLVVLLALYPWVEVKSNSSPFVMIFHNLDSNVVASALNFVILVASLSVYNSGVYSNSRMLFGLSVQGNAPKFLTRVSRRGVPINSLMLSGAITSLVVLINYLLPQKAFGLLMALVVATLLLNWIMICLAHLRFRAAMRRQGRETQFKALLYPFGNYLCIAFLGMILLLMCTMDDMRLSAILLPVWIVFLFMAFKTLRRK | 5.66 | 5.23 ± 0.36 | – | – | > 16 | 5.51 | – | – | – | – | – | –
5 | MTPWFLYLIRTADNKLYTGITTDVERRYQQHQSGKGAKALRGKGELTLVFSAPVGDRSLALRAEYRVKQLTKRQKERLVAEGAGFAELLSSLQTPEIKSD | 6.282 ± 0.0083 | – | – | – | – | – | – | – | – | – | – | 1.75
6 | MKPYQRQFIEFALSKQVLKFGEFTLKSGRKSPYFFNAGLFNTGRDLALLGRFYAEALVDSGIEFDLLFGPAYKGIPIATTTAVALAEHHDLDLPYCFNRKEAKDHGEGGNLVGSALQGRVMLVDDVITAGTAIRESMEIIQANGATLAGVLISLDRQERGRGEISAIQEVERDYNCKVISIITLKDLIAYLEEKPEMAEHLAAVKAYREEFGV [P0A7E3] | 4.07 ± 0.75 | 3.83 ± 0.08 | 5.31 ± 0.18 | 9.3 ± 3.5 | 10.7 ± 0.39 | 3.84 ± 0.28 | 3.61 | 4.35 ± 0.61 | 2.87 ± 0.3 | 3.93 ± 0.33 | 6.396 ± 0.051 | 5.62 ± 0.25
7 | MVPSTFSRLKAARCLPVVLAALIFAGCGTHTPDQSTAYMQGTAQADSAFYLQQMQQSSDDTRINWQLLAIRALVKEGKTGQAVELFNQLPQELNDAQRREKTLLAVEIKLAQKDFAGAQNLLAKITPADLEQNQQARYWQAKIDASQGRPSIDLLRALIAQEPLLGAKEKQQNIDATWQALSSMTQEQANTLVINADENILQGWLDLQRVWFDNRNDPDMMKAGIADWQKRYPNNPGAKMLPTQLVNVKAFKPASTNKIALLLPLNGQAAVFGRTIQQGFEAAKNIGTQPVAAQVAAAPAADVAEQPQPQTVDGVASPAQASVSDLTGEQPAAQPVPVSAPATSTAAVSAPANPSAELKIYDTSSQPLSQILSQVQQDGASIVVGPLLKNNVEELLKSNTPLNVLALNQPENIENRVNICYFALSPEDEARDAARHIRDQGKQAPLVLIPRSSLGDRVANAFAQEWQKLGGGTVLQQKFGSTSELRAGVNGGSGIALTGSPITLRATTDSGMTTNNPTLQTTPTDDQFTNNGGRVDAVYIVATPGEIAFIKPMIAMRNGSQSGATLYASSRSAQGTAGPDFRLEMEGLQYSEIPMLAGGNLPLMQQALSAVNNDYSLARMYAMGVDAWSLANHFSQMRQVQGFEINGNTGSLTANPDCVINRNLSWLQYQQGQVVPVS | 5.639 ± 0.023 | 6.45 ± 0.83 | 5.614 ± 0.025 | 11.2 ± 1 | 11.5 ± 0.52 | 5.812 ± 0.034 | 5.89 ± 0.37 | 6.49 ± 0.16 | 3.11 ± 0.16 | 6.03 ± 0.11 | 13.1 ± 1.8 | 5.91 ± 0.45
8 | MNTSHVRVVTHMCGFLVWLYSLSMLPPMVVALFYKEKSLFVFFITFVIFFCIGGGAWYTTKKSGIQLRTRDGFIIIVMFWILFSVISAFPLWIDSELNLTFIDALFEGVSGITTTGATVIDDVSSLPRAYLYYRSQLNFIGGLGVIVLAVAVLPLLGIGGAKLYQSEMPGPFKDDKLTPRLADTSRTLWITYSLLGIACIVCYRLAGMPLFDAICHGISTVSLGGFSTHSESIGYFNNYLVELVAGSFSLLSAFNFTLWYIVISRKTIKPLIRDIELRFFLLIALGVIIVTSFQVWHIGMYDLHGSFIHSFFLASSMLTDNGLATQDYASWPTHTIVFLLLSSFFGGCIGSTCGGIKSLRFLILFKQSKHEINQLSHPRALLSVNVGGKIVTDRVMRSVWSFFFLYTLFTVFFILVLNGMGYDFLTSFATVAACINNMGLGFGATASSFGVLNDIAKCLMCIAMILGRLEIYPVIILFSGFFWRS | – | 6.77 | – | 13.5 | – | > 8 | 5.64 ± 0.43 | – | > 4 | – | > 16 | > 8
9 | MELLLLSNSTLPGKAWLEHALPLIAEQLQGRRSAVFIPFAGVTQTWDDYTAKTAAVLAPLGVSVTGIHSVVDPVAAIENAEIVIVGGGNTFQLLKQCRERGLLAPITDVVKRGALYIGWSAGANLACPTIRTTNDMPIVDPQGFDALNLFPLQINPHFTNALPEGHKGETREQRIRELLVVAPELTIIGLPEGNWITVSKGHATLGGPNTTYVFKAGEEAVPLEAGHRF [P0A7C6] | 3.28 | – | 4.93 ± 0.56 | 9.36 | 11.1 ± 0.86 | – | – | – | 3.03 | 4.73 | 5.8 | 5.69 ± 0.077
10 | MSDYQMFEVQVSQVEPLTEQVKRFTLVATDGKPLPAFTGGSHVIVQMSDGDNQYSNAYSLLSSPHDTSCYQIAVRLEENSRGGSRFLHQQVKVGDRLTISTPNNLFALIPSARKHLFIAGGIGITPFLSHMAELQHSDVDWQLHYCSRNPESCAFRDELVQHPQAEKVHLHHSSTGTRLELARLLADIEPGTHVYTCGPEALIEAVRSEAARLDIAADTLHFEQFAIEDKTGDAFTLVLARSGKEFVVPEEMTILQVIENNKAAKVECLCREGVCGTCETAILEGEADHRDQYFSDEERASQQSMLICCSRAKGKRLVLDL | – | – | – | – | – | – | – | – | 3.41 | – | – | –
11 | MNNIWWQTKGQGNVHLVLLHGWGLNAEVWRCIDEELSSHFTLHLVDLPGFGRSRGFGALSLADMAEAVLQQAPDKAIWLGWSLGGLVASQIALTHPERVQALVTVASSPCFSARDEWPGIKPDVLAGFQQQLSDDFQRTVERFLALQTMGTETARQDARALKKTVLALPMPEVDVLNGGLEILKTVDLRQPLQNVSMPFLRLYGYLDGLVPRKVVPMLDKLWPHSESYIFAKAAHAPFISHPAEFCHLLVALKQRV | 3.79 ± 0.6 | 4.85 ± 1.8 | 5.41 ± 0.43 | 12.1 ± 4.7 | – | 3.5 ± 0.15 | 3.33 | 3.66 ± 0.1 | 3.39 ± 0.45 | 3.63 ± 0.25 | 6.93 ± 1.4 | 5.93 ± 0.25
